“Also recorded” adds a separate entry of the source. Read-outs that look alike come from different tables or passages of the source.
Columns and labels:
[1] = biological target: T1, K562 cells that express human αvβ3 (αvβ3-K562) (Homo sapiens, UniProt P05106+P06756); assay: Cell adhesion assay, αvβ3-K562 cells; type: cell-based
T1 construct: expressed in transfected cells; host or cells: K562
Protocol: FIG. 5. […] Adhesion assays was performed using αvβ3-K562 (left) or mock transfected cells (right) as described herein. The data is shown as means+/−SEM of triplicate experiments.
CHO or K562 cells expressing different recombinant integrins were previously known and available (Zhang et al. 1998; Tarui et al. 2006). Labeling of proteins with FITC or […] was performed according to manufacturers' instructions. Flow cytometry was performed as described above. Also, adhesion assays as described above were used to confirm the findings using flow cytometry.
(§1) Cell adhesion and soluble integrin binding assays were performed as described previously (Mori, et al., 2008). NRG1α (175-241) was immobilized to wells of 96-well microtiter plate overnight at 4° C. in 0.1 M carbonate buffer, pH 2 9.4. Remaining protein binding sites were blocked by incubating with 200 μl of 0.1% BSA in PBS for 60 min at room temperature. Wells were then incubated with soluble integrin αvβ3 in 50 μl in Hepes-Tyrode's buffer supplemented with 1 mM Mn2+ at room temperature for 60 min. After rinsing the wells with the same buffer, bound integrins were determined by horseradish peroxidase (HRP)-conjugated anti-His tag mouse IgG and substrate 3,3′,5,5′-tetramethylbenzidine of HRP.

integrin αvβ3 = biological target: T2, integrin αvβ3 (Homo sapiens, UniProt P05106+P06756); assay: ELISA-type binding of soluble recombinant integrin αvβ3 to immobilized NRG1 fragments; details: soluble αvβ3, 1 mM Mn2+, room temperature
T2 construct: Soluble recombinant integrin αvβ3 (5 μg/ml) was added to the wells; made in house
Protocol: FIG. 1. […] The isolated EGF-like domain of Wt NRG1 was immobilized to wells of 96-well titer plates. The concentrations of the coating solution are shown. Soluble recombinant integrin αvβ3 (5 μg/ml) was added to the wells in the presence of 1 mM Mn^2+ and incubated for 2 h at room temperature. After washing the wells bound αvβ3 was determined by using anti-β3 antibody and HRP-conjugated anti-mouse IgG. The data is shown as means+/−SEM of triplicate experiments. FIG. 7. […] Wt GST-NRG1 (175-222) and the 2KE mutant of GST-NRG1 (175-222) were immobilized to wells of 96-well titer plates. The concentrations of the coating solution are shown. Soluble recombinant integrin αvβ3 (5 μg/ml) was added to the wells in the presence of 1 mM Mn^2+ and incubated for 2 h at room temperature. After washing, the wells bound αvβ3 was determined by using anti-β3 antibody and HRP-conjugated anti-mouse IgG. The data are shown as means+/−SD of triplicate experiments. […] Direct αvβ3-NRG (175-222) interaction: It has been well established that the EGF-like domain of the NRGs is sufficient to specifically activate ErbB receptors and to induce cellular responses in culture. To generate GST-NRG1 EGF-like domain fusion protein, the cDNA fragment of the EGF-like domain of NRG1 was amplified by PCR and subcloned into PGEX-2T vector to generate GST-NRG1 EGF-like domain fusion protein (designated GST-NRG1 (175-222)) in E. coli BL21. The fusion protein was purified in glutathione-affinity chromatography. The affinity resin was extensively washed with 1% Triton X-114 to remove endotoxin before eluting the protein. It was tested, in the present invention, whether soluble recombinant integrin αvβ3 binds to GST-NRG1 (175-222) that is immobilized to plastic wells (ELISA-type assay). […] Cell adhesion and soluble integrin binding assays were performed as described previously (Mori, et al., 2008). NRG1α (175-241) was immobilized to wells of 96-well microtiter plate overnight at 4° C. in 0.1 M carbonate buffer, pH 2 9.4. Remaining protein binding sites were blocked by incubating with 200 μl of 0.1% BSA in PBS for 60 min at room temperature. Wells were then incubated with soluble integrin αvβ3 in 50 μl in Hepes-Tyrode's buffer supplemented with 1 mM Mn2+ at room temperature for 60 min. After rinsing the wells with the same buffer, bound integrins were determined by horseradish peroxidase (HRP)-conjugated anti-His tag mouse IgG and substrate 3,3′,5,5′-tetramethylbenzidine of HRP.

[2] = biological target: T3, CHO cells expressing β1-3-1 (β1-3-1-CHO cells) (Homo sapiens, UniProt P05556, DEL209-212/INS207YDMKT); assay: Cell adhesion assay, β1-3-1-CHO cells; type: cell-based
T3 construct: expressed in transfected cells; host or cells: CHO
Protocol: FIG. 3. Adhesion of CHO cells that express human β1 (β1-CHO) or β1-3-1 (β1-3-1-CHO) to wt NRG1 (175-222). The β1-3-1 mutation changes the specificity of β1 integrins to that of β3 integrins. Cell adhesion was performed as described herein. β1-3-1-CHO cells adhered to wt NRG1 (175-222) and this binding was blocked by anti-human β1 antibody AIIB2, but not by purified mouse IgG (mIgG). BSA: BSA as a control was coated instead of NRG1 (175-222).
FIG. 6. […] Adhesion assays was performed using β1-3-1-CHO cells as described herein. Data are shown as means+/−SEM of triplicate experiments.
The β1-3-1 mutation: To determine if NRG1 (175-222) binds to αvβ3 like other known αvβ3 ligands (e.g., vitronectin and fibrinogen), a mutant of β1 having a ligand specificity of β3 (Takagi et al. 1997) was used. […] It was shown that when a disulfide-linked five-residue sequence of β1 I-like domain (residues 177-183) of αvβ1 is switched with a corresponding sequence in β3 integrin (designated the β1-3-1 mutant), ligand-binding specificity of the mutated integrin αvβ1-3-1 is altered to that of αvβ3 (Takagi et al. 1997). […] The adhesion of β1-3-1-CHO cells to NRG1 (175-222) was blocked anti-β1 antibody AIIB2 (FIG. 3). […] These findings indicate that NRG1 (175-222) binds to the ligand-binding site of αvβ3, and that the specificity loop plays a role in NRG1 binding to αvβ3.
as §1

T1 sequence (P06756 31-1048): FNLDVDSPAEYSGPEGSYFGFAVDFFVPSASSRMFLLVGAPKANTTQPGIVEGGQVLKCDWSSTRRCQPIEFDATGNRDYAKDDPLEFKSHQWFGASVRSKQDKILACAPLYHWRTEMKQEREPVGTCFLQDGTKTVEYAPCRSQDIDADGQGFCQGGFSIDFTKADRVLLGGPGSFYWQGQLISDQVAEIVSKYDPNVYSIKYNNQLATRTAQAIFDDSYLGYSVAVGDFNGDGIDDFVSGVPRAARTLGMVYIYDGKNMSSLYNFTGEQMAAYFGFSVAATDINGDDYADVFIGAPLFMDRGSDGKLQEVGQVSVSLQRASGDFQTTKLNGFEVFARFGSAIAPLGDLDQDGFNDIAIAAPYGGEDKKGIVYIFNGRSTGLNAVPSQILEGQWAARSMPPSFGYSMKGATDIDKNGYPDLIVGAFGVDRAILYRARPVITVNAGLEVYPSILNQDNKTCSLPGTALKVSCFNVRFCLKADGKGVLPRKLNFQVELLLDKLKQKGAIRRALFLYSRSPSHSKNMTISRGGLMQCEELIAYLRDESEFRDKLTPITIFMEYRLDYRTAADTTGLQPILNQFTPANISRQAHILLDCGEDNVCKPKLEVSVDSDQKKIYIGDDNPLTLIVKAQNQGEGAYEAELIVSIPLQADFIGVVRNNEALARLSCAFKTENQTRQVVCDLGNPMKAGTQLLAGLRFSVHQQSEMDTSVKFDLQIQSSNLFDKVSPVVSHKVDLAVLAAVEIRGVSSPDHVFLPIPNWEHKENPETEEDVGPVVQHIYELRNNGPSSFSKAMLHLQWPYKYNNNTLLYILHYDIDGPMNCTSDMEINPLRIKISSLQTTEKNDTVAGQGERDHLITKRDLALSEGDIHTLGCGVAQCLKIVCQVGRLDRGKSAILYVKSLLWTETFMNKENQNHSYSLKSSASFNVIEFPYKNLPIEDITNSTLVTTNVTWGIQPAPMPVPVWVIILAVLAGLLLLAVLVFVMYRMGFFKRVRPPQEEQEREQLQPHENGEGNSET
T1 sequence (P05106 27-788): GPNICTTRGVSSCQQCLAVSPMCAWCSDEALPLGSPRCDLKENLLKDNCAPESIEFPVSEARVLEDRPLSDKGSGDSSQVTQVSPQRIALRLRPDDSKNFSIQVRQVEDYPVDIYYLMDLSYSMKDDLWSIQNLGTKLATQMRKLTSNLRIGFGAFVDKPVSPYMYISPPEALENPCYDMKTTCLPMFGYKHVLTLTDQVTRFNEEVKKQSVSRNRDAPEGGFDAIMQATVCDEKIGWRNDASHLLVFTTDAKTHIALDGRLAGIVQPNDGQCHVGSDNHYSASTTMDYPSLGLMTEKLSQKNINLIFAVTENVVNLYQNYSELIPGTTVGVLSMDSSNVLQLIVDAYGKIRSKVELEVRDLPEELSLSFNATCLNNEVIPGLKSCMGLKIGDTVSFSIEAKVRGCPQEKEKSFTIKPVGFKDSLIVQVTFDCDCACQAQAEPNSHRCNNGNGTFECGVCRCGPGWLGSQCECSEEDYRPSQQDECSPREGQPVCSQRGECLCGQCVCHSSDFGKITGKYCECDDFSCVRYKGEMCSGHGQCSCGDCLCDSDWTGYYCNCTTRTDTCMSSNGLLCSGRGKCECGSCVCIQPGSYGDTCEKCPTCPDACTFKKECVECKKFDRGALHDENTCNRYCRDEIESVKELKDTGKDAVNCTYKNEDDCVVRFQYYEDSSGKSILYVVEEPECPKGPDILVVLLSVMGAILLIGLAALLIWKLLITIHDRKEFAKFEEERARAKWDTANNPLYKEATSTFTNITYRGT
T3 sequence (P05556 with tags, fused parts or gaps INS207YDMKT/DEL209-212): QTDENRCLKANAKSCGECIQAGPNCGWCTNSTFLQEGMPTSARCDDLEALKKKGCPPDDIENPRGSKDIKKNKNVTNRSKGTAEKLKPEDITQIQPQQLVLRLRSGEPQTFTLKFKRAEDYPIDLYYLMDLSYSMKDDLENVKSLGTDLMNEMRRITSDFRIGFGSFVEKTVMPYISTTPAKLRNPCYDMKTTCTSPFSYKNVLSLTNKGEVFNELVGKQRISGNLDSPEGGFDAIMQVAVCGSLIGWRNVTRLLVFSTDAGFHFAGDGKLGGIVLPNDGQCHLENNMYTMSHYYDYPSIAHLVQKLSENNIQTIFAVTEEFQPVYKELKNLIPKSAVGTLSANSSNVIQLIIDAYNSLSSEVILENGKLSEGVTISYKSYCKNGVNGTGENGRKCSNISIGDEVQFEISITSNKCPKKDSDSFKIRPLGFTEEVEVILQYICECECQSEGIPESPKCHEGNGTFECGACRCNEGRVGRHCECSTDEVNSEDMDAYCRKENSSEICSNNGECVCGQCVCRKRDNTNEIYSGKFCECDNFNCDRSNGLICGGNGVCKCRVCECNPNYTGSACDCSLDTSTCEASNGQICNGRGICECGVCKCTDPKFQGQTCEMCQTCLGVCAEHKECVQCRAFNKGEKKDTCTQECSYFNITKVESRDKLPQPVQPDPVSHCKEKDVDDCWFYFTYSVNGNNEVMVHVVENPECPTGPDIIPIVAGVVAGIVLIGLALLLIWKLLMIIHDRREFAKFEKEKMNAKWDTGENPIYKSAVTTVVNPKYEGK
T2 sequence (P06756 31-992 limits assumed): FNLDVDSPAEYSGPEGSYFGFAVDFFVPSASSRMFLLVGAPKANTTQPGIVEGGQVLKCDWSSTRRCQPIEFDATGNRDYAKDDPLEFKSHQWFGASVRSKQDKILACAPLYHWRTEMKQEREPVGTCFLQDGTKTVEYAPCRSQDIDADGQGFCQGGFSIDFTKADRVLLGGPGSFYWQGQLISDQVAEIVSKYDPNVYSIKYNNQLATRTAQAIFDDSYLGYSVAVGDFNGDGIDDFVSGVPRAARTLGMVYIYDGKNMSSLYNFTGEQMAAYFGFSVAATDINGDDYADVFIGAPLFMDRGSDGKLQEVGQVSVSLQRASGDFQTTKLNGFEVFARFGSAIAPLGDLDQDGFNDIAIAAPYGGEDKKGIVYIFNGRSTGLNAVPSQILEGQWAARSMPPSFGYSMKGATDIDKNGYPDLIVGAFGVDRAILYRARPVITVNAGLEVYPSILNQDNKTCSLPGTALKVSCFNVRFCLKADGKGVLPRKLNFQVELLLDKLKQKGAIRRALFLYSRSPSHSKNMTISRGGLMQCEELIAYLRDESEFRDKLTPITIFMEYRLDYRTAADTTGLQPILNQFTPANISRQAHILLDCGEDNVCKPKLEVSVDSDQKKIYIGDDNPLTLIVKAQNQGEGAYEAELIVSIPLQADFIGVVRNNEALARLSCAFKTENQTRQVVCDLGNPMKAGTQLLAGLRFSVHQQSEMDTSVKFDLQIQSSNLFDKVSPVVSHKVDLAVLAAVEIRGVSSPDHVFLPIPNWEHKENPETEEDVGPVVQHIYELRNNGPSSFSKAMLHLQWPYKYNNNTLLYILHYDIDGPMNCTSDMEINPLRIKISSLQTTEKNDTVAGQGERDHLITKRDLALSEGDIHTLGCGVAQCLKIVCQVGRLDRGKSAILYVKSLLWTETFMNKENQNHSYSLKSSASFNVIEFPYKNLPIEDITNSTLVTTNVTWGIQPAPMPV
T2 sequence (P05106 27-718 limits assumed): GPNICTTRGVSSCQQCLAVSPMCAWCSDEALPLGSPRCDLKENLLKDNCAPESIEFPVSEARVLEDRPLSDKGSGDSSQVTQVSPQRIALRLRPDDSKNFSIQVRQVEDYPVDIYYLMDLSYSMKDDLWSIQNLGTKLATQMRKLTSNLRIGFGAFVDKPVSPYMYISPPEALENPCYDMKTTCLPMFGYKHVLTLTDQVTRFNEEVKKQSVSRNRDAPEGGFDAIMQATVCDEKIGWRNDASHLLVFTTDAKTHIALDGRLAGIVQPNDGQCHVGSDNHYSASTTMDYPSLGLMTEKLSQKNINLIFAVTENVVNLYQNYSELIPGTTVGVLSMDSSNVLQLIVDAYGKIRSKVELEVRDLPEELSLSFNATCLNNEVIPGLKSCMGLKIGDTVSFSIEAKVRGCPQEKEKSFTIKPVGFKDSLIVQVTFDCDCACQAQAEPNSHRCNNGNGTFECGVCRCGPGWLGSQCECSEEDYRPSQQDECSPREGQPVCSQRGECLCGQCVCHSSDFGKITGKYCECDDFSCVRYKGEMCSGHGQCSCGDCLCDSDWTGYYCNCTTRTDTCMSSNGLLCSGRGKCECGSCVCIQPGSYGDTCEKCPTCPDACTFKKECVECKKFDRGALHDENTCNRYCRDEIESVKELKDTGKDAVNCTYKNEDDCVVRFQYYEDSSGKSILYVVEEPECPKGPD

Molecule	Adhesion of αvβ3-K562 cells to the immobilized protein [1]	Binding of soluble recombinant integrin αvβ3 to the immobilized protein (integrin αvβ3)	Adhesion of β1-3-1-CHO cells to the immobilized protein [2]	Adhesion of αvβ3-K562 cells to the immobilized protein ([1]; listed as NRG1 (175-222))	Binding of soluble recombinant integrin αvβ3 to the immobilized protein (integrin αvβ3; listed as NRG (175-222))	Adhesion of αvβ3-K562 cells to the immobilized protein ([1]; listed as NRG1α (175-241))	Adhesion of αvβ3-K562 cells to the immobilized protein ([1]; listed as wt NRG1α (175-241))	Adhesion of β1-3-1-CHO cells to the immobilized protein ([2]; listed as NRG1α (175-241))	Adhesion of β1-3-1-CHO cells to the immobilized protein ([2]; listed as wt NRG1α (175-241))
3KE (175-222): NRG1 (175-222) with Lys181/Lys185/Lys187 mutated to Glu; GTSHLVECAEEEETFCVNGGECFMVKDLSNPSRYLCKCQPGFTGARCT (SEQ ID NO:11) (integrin-binding site within human neuregulin, 3KE mutant, short version)	did not bind; also recorded: defective in binding to αvβ3-K562 cells	bound to the 3KE (175-222) mutant (isolated EGF-like domain) in a dose-dependent manner; also recorded: much lower affinity to αvβ3	defective in binding to β1-3-1 integrins	–	–	–	–	–	–
wt NRG1 (175-222): wild type human neuregulin 1 fragment, EGF-like domain, residues 175-222 of SEQ ID NO:4 (SEQ ID NO:3) (GTSHLVKCAEKEKTFCVNGGECFMVKDLSNPSRYLCKCQPGFTGARCT; integrin-binding site within human neuregulin 1 EGF-like region and portion of alpha domain, residues 175-222 of human neuregulin 1 alpha) [reference compound]	bound to wt NRG1 (175-222)	–	bound to NRG1 (175-222)	adhered in a dose-dependent manner	bound to recombinant soluble αvβ3	–	–	–	–
WT NRG1α (175-241): wild type human neuregulin 1 fragment, residues 175-241 of SEQ ID NO:4 (SEQ ID NO:5), entire EGF-like motif and α domain (protein, integrin-binding site within human neuregulin, residues 175-241of human neuregulin 1alpha, long version) GTSHLVKCAEKEKTFCVNGGECFMVKDLSNPSRYLCKCQPGFTGARCTENVPMKVQNQEKAEELYQK	–	bound to GST-NRG1α (175-241) (isolated EGF-like domain) in a dose-dependent manner	–	–	–	adhered in a dose-dependent manner	bound to wt NRG1α (175-241)	bound to NRG1α (175-241)	bound to wt NRG1α (175-241)
3KE (175-241): NRG1α (175-241) with Lys181/Lys185/Lys187 mutated to Glu, SEQ ID NO:6 (3KE, long version) (protein, integrin-binding site within human neuregulin, residues 175-241of human neuregulin 1alpha, long version, 3KE mutant) GTSHLVECAEEEETFCVNGGECFMVKDLSNPSRYLCKCQPGFTGARCTENVPMKVQNQEKAEELYQK	little or no adhesion	–	little or no adhesion	–	–	–	–	–	–

From patent US20110212108A1, “NEUREGULIN/ERBB SIGNALING AND INTEGRIN” (THE REGENTS OF THE UNIVERSITY OF CALIFORNIA, priority 2008, published 2011)
